B1: selected anti-SARS-CoV-2 spike antibody C7 (antibody, V domains shown)
VH: QVQLVQSGAEVKKPGASVKVSCKVSGYSFTNYAIHWVRQAPGKGLEWMGGITPYNADTIYAQKFQGRVTMTEDTSTDTAYMELSSLKSEDTAVYYCARDGGNWAAPYSMDVWGNGTLVTVSS
VL: DIQMTQSPSSVSASVGDRVTITCRASHGISSYLAWYQQKPGKAPKLLIYDATIRATGVPSRFSGSGSGTDFTLTISSLQPEDFANYYCHQYATYPWTFGGGTKVEIK
B2: selected anti-SARS-CoV-2 spike antibody C1 (antibody, V domains shown)
VH: EVQLVQSGAEVKKPGASVKVSCKVSGYSFTDHSIHWVRQAPGKGLEWMGGISTQRGDTIYAQKFQGRVTMTEDTSTDTAYMELSSLKSEDTAVYYCARDGYYGSGTYYYYGMDVWGQGTTVTVSS
VL: DIQMTQSPSSVSASVGDRVTITCRASQSIGSFLAWYQQKPGKAPKLLIYGESNRATGVPSRFSGSGSGTDFTLTISSLQPEDFANYYCQQYNRYPWAFGGGTKVEIK
B3: selected anti-SARS-CoV-2 spike antibody B3 (antibody, V domains shown)
VH: EVQLVQSGAEVKKPGASVKVSCKVSGYTSPATIHWVRQAPGKGLEWMGGISPYKGDTIYAQKFQGRVTMTEDTSTDTAYMELSSLKSEDTAVYYCAKDSYYYDSSGSGLGGGFDYWGQGTLVTVSS
VL: DIQMTQSPSSVSASVGDRVTITCRASQDIGNHLAWYQQKPGKAPKLLIYASSNLASGVPSRFSGSGSGTDFTLTISSLQPEDFANYYCHQYATYPWTFGGGTKVEIK
B4: selected anti-SARS-CoV-2 spike antibody B7 (antibody, V domains shown)
VH: QVQLVQSGAEVKKPGASVKVSCKVSGYSFTDHSIHWVRQAPGKGLEWMGGINPNIGDTIYAQKFQGRVTMTEDTSTDTAYMELSSLKSEDTAVYYCAKDGWGSLLNGIAVAGLDYWGQGTLVTVSS
VL: DIQMTQSPSSVSASVGDRVTITCRASQDIGNHLAWYQQKPGKAPKLLIYASSNLASGVPSRFSGSGSGTDFTLTISSLQPEDFANYYCHQYATYPWTFGGGTKVEIK
B5: selected anti-SARS-CoV-2 spike antibody C4 (antibody, V domains shown)
VH: EVQLVQSGAEVKKPGASVKVSCKVSGYSFTDHSIHWVRQAPGKGLEWMGGINPYTGDTIYAQKFQGRVTMTEDTSTDTAYMELSSLKSEDTAVYYCARDGYSGYDYGSVGRDYYYYGMDVWGQGTTVTVSS
VL: DIQMTQSPSSVSASVGDRVTITCRASQDIGNHLAWYQQKPGKAPKLLIYASSNLASGVPSRFSGSGSGTDFTLTISSLQPEDFANYYCHQYATYPWTFGGGTKVEIK
B6: selected anti-SARS-CoV-2 spike antibody D2 (antibody, V domains shown)
VH: QVQLVQSGAEVKKPGASVKVSCKVSGYSFTDHSIHWVRQAPGKGLEWMGGINPYTGDTIYAQKFQGRVTMTEDTSTDTAYMELSSLKSEDTAVYYCARDARLLDYWGQGAQVTVSS
VL: DIQMTQSPSSVSASVGDRVTITCRASRSIGNHLAWYQQKPGKAPKLLIYASSNLASGVPSRFSGSGSGTDFTLTISSLQPEDFANYYCHQYATYPWTFGGGTKVEIK
B7: selected anti-SARS-CoV-2 spike antibody C2 (antibody, V domains shown)
VH: QVQLVQSGAEVKKPGASVKVSCKASGYTSPATIHWVRQAPGKGLEWMGGISPYKGDTIYAQKFQGRVTMTEDTSTDTAYMELSSLKSEDTAVYYCARDAYSSSYYYGMDVWGQGTTVTVSS
VL: DIQMTQSPSSVSASVGDRVTITCRASEDISKYLAWYQQKPGKAPKLLIYGASNLHTGVPSRFSGSGSGTDFTLTISSLQPEDFANYYCHQYATYPWTFGGGTKVEIK
B8: selected anti-SARS-CoV-2 spike antibody B11 (antibody, V domains shown)
VH: EVQLVQSGAEVKKPGASVKVSCKVSGYSFTDHSIHWVRQAPGKGLEWMGGINPYTGDTIYAQKFQGRVTMTEDTSTDTAYMELSSLKSEDTAVYYCARDAYPYYYGMDVWGQGTTVTVSS
VL: DIQMTQSPSSVSASVGDRVTITCRASQDIGNHLAWYQQKPGKAPKLLIYASSNLASGVPSRFSGSGSGTDFTLTISSLQPEDFANYYCHQYATYPWTFGGGTKVEIK

Molecular target: T1, SARS-CoV-2 spike receptor-binding domain (RBD) (SARS-CoV-2, Wuhan-Hu-1, UniProt P0DTC2)
T1 construct: also called SARS-CoV-2 RBD
Assay: SPR; array SPR (Carterra LSA), HC200M chip; IgG captured on immobilised anti-human Fc; antigen as analyte in a 7-point series, RBD 300 nM to 411 pM or trimer 100 nM to 137 pM, in 1x HBSTE with 0.5 mg/mL BSA; association 5 min, dissociation 11 min; one-site model; constants for the trimer are called avidities
Conditions: both partners purified

Does B1 bind?
Result: binds

Does B2 bind?
Result: binds

Does B3 bind?
Result: binds

Does B4 bind?
Result: binds

Does B5 bind?
Result: binds

Does B6 bind?
Result: binds

Does B7 bind?
Result: binds

Does B8 bind?
Result: binds
